B1: KRT18 (parent)
chain: RAQYDELARKNREELDKYWSQQIE
B2: INTS3 (parent)
chain: FSDDEEDLNSKGKKREFRFHPIKE

Variants of: B1
Assay: protein stability index of a GFP-peptide fusion (GPS, HEK-293T) (PSI 1-6); higher = more stable
Settings: c terminus: a fixed tail appended
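Also: lentivirally expressed fusions sorted by FACS into six bins by GFP to DsRed ratio, PSI derived from sequencing read proportions per bin multiplied by bin number.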

Protein stability index: each site, then its substitutions
R9: K 3.52 | L 3.27 | M 3.17 | N 3.46 | P 4.28 | Q 3.16 | S 3.66 | T 3.53 | V 2.86 | W 2.62 | Y 3.64
K10: A 2.97 | C 3.02 | D 4.73 | E 3.33 | F 3.34 | G 4.05 | H 4.16 | I 2.79 | L 3.73 | M 4.04 | N 3.79 | P 3.83 | Q 3.14 | R 3.03 | S 3.23 | T 3.5 | V 3.15 | W 2.81 | Y 4.15
N11: A 4 | C 2.81 | D 4.23 | E 4.54 | F 1.94 | G 3.71 | H 3.75 | I 2.37 | K 3.96 | L 2.66 | M 2.81 | P 4.02 | Q 3.87 | R 3.39 | S 4.15 | T 2.8 | V 2.75 | W 2.63 | Y 2.27
R12: A 4.25 | C 3.98 | D 4.17 | E 4.27 | F 4.13 | G 3.32 | H 3.64 | I 4.34 | K 4.37 | L 4.56 | M 3.72 | N 3.94 | P 4.08 | Q 4.12 | S 4.56 | T 4.19 | V 4.34 | W 4.56 | Y 4.05
E13: A 3.41 | C 2.81 | D 3.54 | F 3.1 | G 3.92 | H 3.54 | I 2.05 | K 3.2 | L 3.07 | M 2.82 | N 3.58 | P 2.99 | Q 2.91 | R 3.31 | S 3.96 | T 3.82 | V 2.07 | W 2.65 | Y 3.05
E14: A 3.82 | C 3.42 | D 3.94 | F 2.5 | G 3.83 | H 3.29 | I 2.62 | K 2.94 | L 2.97 | M 2.92 | N 3.04 | P 3.81 | Q 3.85 | R 2.87 | S 3.5 | T 3.56 | V 3.62 | W 3.89 | Y 3.07
L15: A 4.37 | C 3.18 | D 4.9 | E 3.98 | F 3.22 | G 4.07 | H 4.25 | I 3.94 | K 3.87 | M 4.06 | N 3.57 | P 4.6 | Q 4.71 | R 4.22 | S 4.19 | T 4.1 | V 3.41 | W 1.95 | Y 3.3
D16: A 2.56 | C 2.4 | E 3.39 | F 2.1 | G 2.03 | H 3.35 | I 2.15 | L 3.12 | M 2.74 | N 1.42 | P 3.63 | Q 2.69 | R 3.08 | S 2.36 | T 2.92 | W 2.21 | Y 2.72
K17: A 2.7 | C 3.28 | D 4.21 | E 3.94 | F 3.62 | G 3.57 | H 3.14 | I 3.16 | L 3.14 | M 3.51 | N 3.02 | P 4.25 | Q 2.96 | R 2.56 | S 3.67 | T 3.21 | V 3.64 | W 3.65 | Y 3.42
Y18: A 4.62 | C 3.95 | D 5.12 | E 5.17 | F 3.5 | G 4.27 | H 4.06 | I 3.97 | K 4.24 | L 4.6 | M 4.36 | N 4.92 | P 4.34 | Q 4.77 | R 4.09 | S 4.51 | T 4.57 | V 4.33 | W 3.62
W19: A 4.73 | C 4.91 | D 4.56 | E 5.28 | F 4.19 | G 5.07 | H 4.85 | I 4.5 | K 4.41 | L 4.42 | M 5.01 | N 4.54 | P 5.03 | Q 5.13 | R 4.71 | S 4.25 | T 4.97 | V 4.68 | Y 4.58
S20: A 3.15 | C 2.63 | D 4.29 | E 4.23 | F 3.04 | G 3.97 | H 1.59 | I 2.31 | K 1.22 | L 2.33 | M 2.56 | N 2.79 | P 3.85 | Q 2.17 | R 2.17 | T 2.79 | V 3.18 | W 2.6 | Y 2.79
Q21: A 3.05 | C 4 | D 2.88 | E 2.88 | F 3.62 | G 3.58 | H 3.41 | I 3.05 | K 3.06 | L 2.74 | M 2.98 | N 3.71 | P 4.25 | R 3.81 | S 3.4 | T 3.76 | V 3.17 | W 3.28 | Y 3.08
Q22: A 3.44 | C 2.31 | D 4.67 | E 3.7 | F 2.75 | G 3.68 | H 4.67 | I 3.37 | K 4.27 | L 3.15 | M 2.67 | N 3.31 | P 3.83 | R 3.78 | S 3.82 | T 3.99 | V 3.08 | W 4 | Y 3.44
I23: A 3.97 | C 3.45 | D 5.28 | E 5.1 | F 2.23 | G 4.41 | H 2.23 | K 5.03 | L 2.21 | M 2.28 | N 4.39 | P 4.96 | Q 4.43 | R 4.68 | S 4.96 | T 4.69 | V 4.14 | W 3.97
E24: A 2.48 | C 3.05 | D 3.8 | F 3.16 | G 3.77 | H 3.72 | I 3.12 | K 3.34 | L 2.23 | M 2.31 | N 3.13 | P 3.87 | Q 2.94 | R 2.3 | S 3.27 | T 3.36 | V 3.01 | W 2.5 | Y 2.73

Variants of: B2
Assay: as above
Settings: c terminus: a fixed tail appended

Protein stability index, by site and new letter:
F1: A 2.89 | C 2.73 | D 2.84 | E 3.36 | G 2.99 | H 2.72 | I 3.2 | K 2.33 | L 2.69 | M 2.58 | N 3.24 | P 3.19 | Q 3 | R 2.71 | S 2.32 | T 3.05 | V 3.29 | W 2.84 | Y 2.94
S2: A 3.14 | C 2.8 | D 3.34 | E 3.39 | F 2.31 | G 3.22 | H 2.3 | I 2.39 | K 3.23 | L 2.47 | M 2.6 | N 2.92 | P 2.53 | Q 2.5 | R 2.14 | T 2.88 | V 2.2 | W 2.33 | Y 2.43
D3: A 2.19 | C 2.42 | E 2.61

Reference: the supplement of paper PMC10567573
